# According to the DeepSol protein solubility set:
# Assay: soluble on expression in E. coli; label from the status in PepcDB or PDB records
row,Sequence,soluble on expression in E. coli
1,MAHHHHHHERASLITTGPYGHQSGAVYVGNYKVVNRHLATHVDWQNCVWEDYNRDLLVSTTTAHGCDTIARCQCTTGVYFCASKSKHYPVSFEGPGLVEVQESEYYPKRYQSHVLLATGFSEPGDAGGILRCEHGVIGLVTMGGEGVVGFADVRDLLWLEDDAMEQ,soluble
2,MAHHHHHHKNTAKTAPNHDRIKNLIAKLNNSKDEDKKKNSPNGQINRTGDVYAKNELINKKKKHINFETFLRIFLETYEEPLSVDELITSFEFFDKEKSGYLDEEKVRFILKNSEERLADEDMKLFLNSLNLRDKDKIDYVMLAKRLKNVA,soluble
3,MAHHHHHHMAAGSAEEAVALMKSAEKHSQKKFFKRPDWDAAASEYERAARIYTHLEDTNRATDAWRKASGAHQNAENNFFAARAMESLAVFLTEQSRKGMADDTSLLNNAVESYCDASKLYAFNEMFDRQADCLKKAAEIINPTKTIVTGLPATEAGSSQVKQRMQQVVGLFREGVSVLEEHIEDKPVVAVQLSELYRNWMLTHLHNGDVKGAVEVLEEQLGIRADPHKKGVFERLAQPHNSAKAGLEITVLCLSCGDDVWARQEMNKLRGVPGFSTSNEEATANALISSFEERDEEQLRAAMKNQTLQFITIDISRMSRKLKIQFSAPQRTNMTSSSLPNPSLPNEQQQGEEQQEADIDPEEDIR,not soluble
4,MAHHHHHHMADRGDARVVHVFVDDLSAVLAEDVHEWLRIIGDIDELKMRYDASRQRSFYWVRFHQSSAARLAVDHLDGERLKNHAIEIHSNVFKKQTAAVATLEGAAGGVQEEKTKLEMNPNLPKNHLMPRDLQMDELLVRAIPEMLETSEQAAEGGELLQRLLELQESYCRAQESLERTTEGIRETDGELTALLRGETTAATDVSGPSSEGFVQGNTPLASARIRNAVPVPLSTCDPAGLLSKLTRHVGPVADYAFSFASNGGSFATVVELFHPDDADFALALLTGRRMVSKSTEKHADAEDALAALVGFGWEAEASVAPLTPPSVPQASFAAHNRVATILRSCRSVA,not soluble
5,MAHHHHHHMAEIHQDKTESAVSSSGILKNVVRHSPKVSSKEIEDSEIRIVKMAHEEENRKLQKMGKCAKDYTLPCPKFWKKKIMNKSENICIASSSYNGFCTPRQSFDNFTKSEKMKFETSCNVEWGCRNVVADACESGKRNYNEPCPEGFISQNDNTCMADLTVYDGLCNGQKIDFTHLTNDEKQNWSVACEAYWPCYIDCSLNNKALSTCPSNWKEINSYECIPPYSYNGPCKDTKNFKFFNELMKKKFEEKCKVTFVCTDLCEKNYRQECPLHWMKEGGYCLAPPSFNLCDRKKYLYSNLTQEEEKKKFEQECSVQWPCQKTSFCDMDWTAECPLNWVKEVPRQGRDQEGGDKYICTADSSLYRGRCAFISLPNGADEETKRELASTCDTPWPCSATGATAGAPEEGGPVPRSDSKIVERRNSAFTNGPVTFQGDVRTNGGPTYRVVDSQGDVSLADIMR,not soluble
6,MAHHHHHHMAFAGSNDVLKVQKMLQVLVEKRSDKKVNMDGSAKPTDQPHHPAPCGNAVDGKAPQGADAKGPLLDGKRANPTLGSSKSAKTGPAD,not soluble
7,MAHHHHHHMAFNQRFDRGAQPSYAAVQLPPGWQMAYSVEGEVYYIDHNTRTTHWKIPQEVLNEMYHQGQTYRPSRSRRGIDRSKMKTKMCMNIQNGGKCTWGNACAFAHSSEELAAVPHNGGGQRMRMDPGAHQGNDNGLDNNHLQQ,soluble
8,MAHHHHHHMAKDNKGKVKKAAGEETVKYYRVKGKKKILIPVKAKKTIAKKYYGRKLASKKKYIVQGKMRKSIEVGKVAIILSGKHMGKRCIITKVLTSGLLAVVGPYEVNGVPLKRVNPRYVVVTSTNIFKFENMAGLKDEFVKLAEQIEDNSFVKSLEIKKKQKKLLSKKNEGLFMNDVITKIKELMKEDPKMQQLQKIQKEIGTLLKDEIAKNKIFAEYLKSKFTLRNDMALHKMKF,not soluble
9,MAHHHHHHMALLEWARQDATMKSSLELYCGPASKDLMIMDIPANVAVDAYLWEGLLVAESMLEADGTLLVVSPHAFSVRVRRFLQWRFLRAQCAVSEAGAVHYAVCSTVAAGFGDAAVRRDDFPGQLATGKRRPCKWNPYRRPEKRKFVASLRPWFTNAPFVKDALRCSLERERDAQERLRDADDAFFAVAHEMVEKGVHYSHPND,not soluble
10,MAHHHHHHMALYIIGLGLGDERDVSVRGKELIEMSDVVYLESYTSVLFVSKNALEEFYKKNIKEVDRNFAEENCEEILEEAVNKKVSFLVVGDPLCATTHHDIILRAKKKNINVQVIHNASIMSAIGESGMQLYNFGQTVSIPYFEETYKPTSFYDKIKVNLDNNFHTLCLLDIKVKERTIENLMKNKNIYEPPRYMTINEAIEQLLYCEEVHKKNVITDNTRGIAIVRIGSNSQQIVSGNLLTLKTIKYNDPLHSLIICAPTLHDVEREYFDMYMHK,not soluble
11,MAHHHHHHMAPPSSSACDPRVYLHERVRQHYLEVLPSRWRAVLFRLAKNTQLRQKNDVIVETHLLSEMQADFDLIHALLDEEHRVYREGVACLCSQASNGKSETERWTASRHLLQGMLSCIAMKEILIAHWKNDLVDISPNTLRVYCHACISHPHVSETDIERLLALYAVS,not soluble
12,MAHHHHHHMAQRVAIPDDCVYEGYGNLYRGDAEVTPPQPIVGARGGNGVLYGTIDSEEALRQLRTALRVDVHPQLKALVQEKKLDEVASSPASLPWLVCRPNALPLRTLPSSFSSGTRYEIERMKSQCRFLRDWLMCHETPEERVEAREFLRTAQRLLQKESVEELLGRTENLLQQLENWPAVVEKARPHIAEWNNDKSLTELREFVGDVLGTDEVCARLSKLTCRFSLLAPLLEEAAFRSAALEEMEQWSSEATVSSLRSLRASIHDWELRVAKDQQNVLDSSQLLLERIAAVRNKRRESAGDLT,soluble
13,MAHHHHHHMARIISASELEKAADALARGNLVAIPTETVYGLGGNALNKEAVEKIFIVKGRPLTDPLICHVSDVEKAMDLWDVHADPEAVELARVLGTAIWPGPLTIVLRANPLLPNSVTGGSGFVGARIPRHEITLRLLQLVNFPVAAPSANTFGHVSPTTADHVLKDLGPKDSSLLIVDGGPCDIGIESTVVKVNNVESVEILRRGGVTLTEVLRALGDKFHPLITIRDTRLRHLSPEMAMDGPGQLLTHYSPNVPSRLLTPSSFTTNLPMDPEGALVEFSSNSSVAAPTEVLLRHTVIIDFGGKLQCLKPGCLAYRDLSVNAQVREACFAVFDALRWTETIPGAEVVLFPLVSGWPHASVDTDLLAAVEDRLFRAASGKVARIRMQSRSV,not soluble
14,MAHHHHHHMARIPPLVVCGPSGVGKGTLIKKVLSEFPSRFRFSISCTTRNKREKETNGVDYYFVDKDDFERKLKEGQFLEFDKYANNFYGTLKSEYDLAVGEGKICLFEMNINGVKQLKESKHIQDGIYIFVKPPSIDILLGRLKNRNTEKPEEINKRMQELTREMDEADKVGFNYFIVNDDLARTYAELREYLLGSYPQLRGG,soluble
15,MAHHHHHHMATPRHGDLDSICSLSSSENSPRGGGQSSERLIDLLTRPCAQGGYGGRLNYTGFATLAASLGWNQEDMDDCWYDIVMGEPCAEAVDMKRVAECVCSYCLASPLPILEHSTLAKSSAAKPATPPRLPHASRERSTTVLLSPPTPRFRRAESVASTLPKTGDKQRVTTATASPSQACAHRRCTAPNVFPRYAVETVSSEQKKASLSPGRGSHRPHNRRTTAKSSRQTSPAPTLSQTSGPSGCSVFSRLYEKGMEQHRKRIAVKPVDSDAAECTFQPHITPYTPKAADTASVHYNKPTESYFAKLTAPGTPPDAICASPETPRVTYHPAPGPSSDVPAGYVEGVARLRSYIASRYAHATFASSLRGSSSADVAHLVEAPILRLPVTVRGVTDAVDVRLASPDTRASLGRECSVGPRRPCFRQRCEARHVSFPSPSRVRFQS,soluble
16,MAHHHHHHMAVVVVQVGQCGNQLGDELWRQLKLTTNSGALPSPFFTRDRRARCVLVDSEPKVVTAVYERQKDVLRAENVIHGQSGRGNHWALGYYGVNDPLSHRAAENAVVARPFQVVKDQRRCDSHVVRNALRAIHAETRRTDDVMEFEAIIVLHSLVGGTGSGMATRLLEKIRYYFIEPLDSSLTVDECEEAEMMRHDGLDGMMMEKRRASYLVSITVAPQAVGELSTQGLNAALTLHALQENANAVLLLRNDDCIRVQEDSCAGGRPRGRGNTSFSTPSFSSIPSCATFKEINEVFLTMLLPILLYGRSTNAVGELVLKCSPNPREINNILTILPTPQRHYLRFKESVTVSRLYVLRGAMQNMPGVYPSVPIELIHTARSLRNPNLVTSREEVQVPKELLKGLKETAATRRSASVTLLQQMEGVLVLNEARELNAAVLFRLLRSAAMKVKAGAFLSTFEDMGMTAECIQAAIREVATRLSAAEEI,not soluble
